The target of test [1] is T1, human platelet membrane glycoprotein (GP)IIb/IIIa (fibrinogen receptor, integrin αIIbβ3) on human platelets (human, UniProt P08514 32-1039; P05106 27-788).
For test [2], the target named is canine platelet (GP)IIb/IIIa on canine platelets (canine, UniProt Q9TUN8 32-1036; A0A8I3PMU9 158-919).
For test [3], the target named is T1, human platelet membrane glycoprotein …. Briefly: Scatchard analysis of CN binding to unactivated human platelets.

“And” between values parts separate entries of the source, which are not always exact repeats. Equal values may be shown once.

B1: contortrostatin (CN), homodimeric disintegrin purified from Agkistrodon contortrix contortrix (south (ligand)
chain: DAPANPCCDAATCKLTTGSQCADGLCCDQCKFMKEGTVCRRARGDDLDDYCNGISAGCPRNPFHA
notes: also called CTTX
Take B1: the IC50 in test [1] was 25 nM and 0.4 µg/mL; in test [2] it was 0.24 mg/L. In test [3], the Kd was found to be 0.037 µM.

By IC50 is commonly meant the concentration needed to halve the response being measured. The Kd is the constant that tells how readily two partners part at equilibrium. Read a low Kd as tighter binding.

The values are drawn from patent US6710030 (dated 2004).
